Test results: patent publication US20090317396A1 (AJOU UNIVERSITY INDUSTRY ACADEMIC COOPERATION FOUNDATION, published 2009)
Each block holds one binder with its values, some of them ahead of it.

Assays:
CD95 [1] = target: T1, CD95 (UniProt P25445 26-173); assay: SPR (Biacore 2000): CD95 immobilised on a CM5 chip, HW6 injected
T1 sequence (looked up): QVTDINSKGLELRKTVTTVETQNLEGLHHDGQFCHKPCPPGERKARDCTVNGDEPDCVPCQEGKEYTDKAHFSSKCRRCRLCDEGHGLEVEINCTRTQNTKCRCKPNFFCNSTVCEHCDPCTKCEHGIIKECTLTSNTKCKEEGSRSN
Experimental: (§1) The binding affinity of the anti-DR5 scFv antibody to DR5, and the cross-reactivities of the antibody with other antigens, DcR1, DcR2, DR4, TNFR1, TNFR2 and CD95 were determined by Biacore 2000 SPR (surface plasmon resonance) biosensor (Pharmacia, Sweden), respectively.

death receptor 4 (DR4) [2] = target: T2, death receptor 4 (DR4) (UniProt O00220 24-239, limits assumed); assay: SPR (Biacore 2000): DR4 immobilised on a CM5 chip, HW6 injected
T2 construct: also called TRAIL receptor 1
T2 sequence (O00220 24-239 limits assumed): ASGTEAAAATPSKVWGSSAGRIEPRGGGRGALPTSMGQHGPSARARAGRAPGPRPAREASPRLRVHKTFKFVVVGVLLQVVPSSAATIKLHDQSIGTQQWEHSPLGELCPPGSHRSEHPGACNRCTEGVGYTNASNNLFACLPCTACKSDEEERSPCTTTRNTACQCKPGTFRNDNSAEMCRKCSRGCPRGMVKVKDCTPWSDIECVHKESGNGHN
Experimental: as §1

TNFR1 [3] = target: T3, TNFR1 (UniProt P19438 30-211, limits assumed); assay: SPR (Biacore 2000): TNFR1 immobilised on a CM5 chip, HW6 injected
T3 sequence (looked up): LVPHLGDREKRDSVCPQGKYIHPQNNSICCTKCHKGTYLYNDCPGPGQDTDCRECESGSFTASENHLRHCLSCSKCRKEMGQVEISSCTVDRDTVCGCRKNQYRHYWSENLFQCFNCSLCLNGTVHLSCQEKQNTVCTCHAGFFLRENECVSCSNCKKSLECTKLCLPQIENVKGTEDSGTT
Experimental: as §1

death receptor 5 (DR5) = target: T4, death receptor 5 (DR5) (UniProt O14763 52-182, limits assumed); assay: SPR (Biacore 2000), DR5 immobilised on CM5 chip, scFv injected, 25° C.
T4 construct: Purified antigen immobilised on CM5 chip or coated on ELISA plates; also called TRAIL receptor 2; TRICK2
T4 sequence (O14763 52-182 limits assumed): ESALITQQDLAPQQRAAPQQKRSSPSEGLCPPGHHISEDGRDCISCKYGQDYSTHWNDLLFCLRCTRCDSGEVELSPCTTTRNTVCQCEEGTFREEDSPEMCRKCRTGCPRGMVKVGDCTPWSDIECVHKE
Experimental: as §1

[4] = target: T5, death decoy receptor 1 (DcR1) (UniProt O14798 26-221, limits assumed); assay: SPR (Biacore 2000): DcR1 immobilised on a CM5 chip, HW6 injected
T5 sequence (looked up): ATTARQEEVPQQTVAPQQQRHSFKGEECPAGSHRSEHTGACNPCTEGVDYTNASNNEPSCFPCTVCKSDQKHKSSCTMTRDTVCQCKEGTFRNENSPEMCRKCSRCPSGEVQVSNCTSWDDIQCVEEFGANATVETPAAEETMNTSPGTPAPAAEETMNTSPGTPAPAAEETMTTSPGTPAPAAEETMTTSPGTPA
Experimental: as §1

DcR2 = target: T6, DcR2 (UniProt Q9UBN6 56-211); assay: SPR (Biacore 2000), antigen immobilised on CM5 chip
T6 construct: also called death decoy receptor 2
T6 sequence (looked up): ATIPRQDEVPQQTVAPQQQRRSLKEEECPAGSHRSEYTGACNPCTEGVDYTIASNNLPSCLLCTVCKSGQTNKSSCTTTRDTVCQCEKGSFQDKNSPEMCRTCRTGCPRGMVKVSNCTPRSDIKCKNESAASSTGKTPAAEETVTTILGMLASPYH
Experimental: as §1

TNFR2 = target: T7, TNFR2 (UniProt P20333 23-257); assay: as above
T7 sequence (looked up): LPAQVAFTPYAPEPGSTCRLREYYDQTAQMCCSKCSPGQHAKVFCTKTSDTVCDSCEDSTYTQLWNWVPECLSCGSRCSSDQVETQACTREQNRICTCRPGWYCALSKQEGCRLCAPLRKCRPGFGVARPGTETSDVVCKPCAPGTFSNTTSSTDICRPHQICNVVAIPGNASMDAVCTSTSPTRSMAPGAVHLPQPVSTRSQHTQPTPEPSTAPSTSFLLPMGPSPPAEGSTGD
Experimental: as §1

TNFR1 [5] = target: T3, TNFR1; assay: SPR (Biacore 2000): TNFR1 immobilised on a CM5 chip, HW1 injected
Experimental: as §1

CD95 [6] = target: T1, CD95; assay: SPR (Biacore 2000): CD95 immobilised on a CM5 chip, HW1 injected
Experimental: as §1

[7] = target: T5, death decoy receptor 1 (DcR1); assay: SPR (Biacore 2000): DcR1 immobilised on a CM5 chip, HW1 injected
Experimental: as §1

death receptor 4 (DR4) [8] = target: T2, death receptor 4 (DR4); assay: SPR (Biacore 2000), antigen immobilised on CM5 chip
Experimental: as §1

- binding result (CD95 [1]): no binding
- binding result (TNFR1 [3]): no binding
- binding result (DcR2): no binding (tested: up to 10 µM)
- binding result (TNFR2): no binding (tested: up to 10 µM)
B1: HW6 anti-DR5 scFv antibody (scFv)
scFv: QVQLQQSGPGRVQPSQTLSLTCAISGDSVSNNNAAWYWIRQSPSRGLEWLGRTYYRSKWYNDYAVSVKSRITISPDTSKNQFSLQLNSVTPEDTAVYYCARRGDGNSYFDYWGQGTLVTVSSGILRWGRFGWRGLGRGWLEIVLTQSPGTLSLSPGERATLSCRASQSVSSGYVSWYRQKPGQAPRLLIYGASTRATGIPDRFSGSGSGTDFTLTISRLEPEDFAVYYCHQYGSSPNTYGQGTKVGIK
notes: Human scFv expressed in E. coli periplasm, purified, monomeric; not shown: C-terminal Flag tag from vector pKJ1; C-terminal 6xHis tag from vector pKJ1
- binding result (death receptor 4 (DR4) [2]): no binding
- Kd (death receptor 5 (DR5)): 54.5 nM
- koff (death receptor 5 (DR5)): 0.00688 s⁻¹
- kon (death receptor 5 (DR5)): 126000 M⁻¹ s⁻¹
- binding result [4]: no binding

- binding result (TNFR1 [5]): no binding
- binding result (CD95 [6]): no binding
- binding result (DcR2): no binding (tested: up to 10 µM)
- binding result (TNFR2): no binding (tested: up to 10 µM)
B2: HW1 anti-DR5 scFv antibody (scFv)
scFv: QVQLQQSGPGLVKPSQTLSLTCAISGDSVSSTTVAWDWIRQSPSRGLEWLGRTYYRSKWYNEYAVSVKSRITINVDTSKNQISLQLNSVTPEDTAVYYCAREPDAGRGAFDIWGQGTTVTSPLRWGRFGWRGLGRGWLRSPVTQSPGTLSLSPGERATLSCRASQSVSSSHLAWYQQKPGQAPRLLIYGASSRATGIPDRFSGSGSGTDFTLTISSLEPEDFAVYYCQQRSNWPPRAVFGQGTRLEIK
notes: Human scFv expressed in E. coli periplasm (PelB signal removed on export), purified, monomeric; not shown: C-terminal Flag tag from vector pKJ1; C-terminal 6xHis tag from vector pKJ1
- Kd (death receptor 5 (DR5)): 202 nM
- koff (death receptor 5 (DR5)): 0.00471 s⁻¹
- kon (death receptor 5 (DR5)): 23300 M⁻¹ s⁻¹
- binding result [7]: no binding
- binding result (death receptor 4 (DR4) [8]): no binding (tested: up to 10 µM)
